Starred links: 1 amine or outer side, 2 acyl side, 3 side chain; linkers in the order of their positions; H or OH if unused. Positions of bridges follow the written chain, without caps; N, C: chain ends. Non-standard residues stand in square brackets, D forms with d. Primed or numbered codes have the meaning given here. *: point of attachment. PyrS2″ = (S)-3-amino-1-((pent-4-en-1-yloxy)carbonyl)pyrrolidine-3-carboxylic acid (stapling residue), C=CCCCOC(=O)N1CC[C@@](N[*:1])(C(=O)[*:2])C1; B5(16) = 2-amino-2-(pent-4-en-1-yl)hept-6-enoic acid = 2,2-bis(4-pentenyl)glycine (stitching residue), C=CCCCC(CCCC=C)(N[*:1])C(=O)[*:2]; B5(5) = 2,2-bis(4-pentenyl)glycine, 2-amino-2-(pent-4-en-1-yl)hept-6-enoic acid (stitching residue), C=CCCCC(CCCC=C)(N[*:1])C(=O)[*:2]; PyrS2 = (S)-3-amino-1-((pent-4-en-1-yloxy)carbonyl)pyrrolidine-3-carboxylic acid, C=CCCCOC(=O)N1CC[C@@](N[*:1])(C(=O)[*:2])C1; B5(12) = 2-amino-2-(pent-4-en-1-yl)hept-6-enoic acid (two olefin side chains), C=CCCCC(CCCC=C)(N[*:1])C(=O)[*:2]; B5(3) = 2,2-bis(4-pentenyl)glycine (stitching residue), C=CCCCC(CCCC=C)(N[*:1])C(=O)[*:2]; 4pentenyl = N-terminal pent-4-enoic acid (acyl cap), C=CCCC(=O)*; 5hexenyl = N-terminal hex-5-enoic acid (acyl cap), C=CCCCC(=O)*; 3butenyl = N-terminal but-3-enoic acid (acyl cap), C=CCC(=O)*; 5hexenyl″ = N-terminal hex-5-enoic acid cap, C=CCCCC(=O)*; Phe(3-COOH) = N[C@@H](Cc1cccc(C(=O)O)c1)C(=O)O; Phe(2-Cl) = N[C@@H](Cc1ccccc1Cl)C(=O)O; Bta = N[C@@H](Cc1csc2ccccc12)C(=O)O; αAllylPro = C=CC[C@@]1(C(=O)O)CCCN1; tBuAla = CC(C)(C)C[C@H](N)C(=O)O; 3Thi = N[C@@H](Cc1ccsc1)C(=O)O; Cha = N[C@@H](CC1CCCCC1)C(=O)O; αMeP = C[C@@]1(C(=O)O)CCCN1
Legend:
[1] = target: full-length beta-Catenin (Uniprot ID P35222) (Homo sapiens (Human)) (UniProt P35222); assay: fluorescence polarization competition; full-length beta-catenin with 5FAM-TCF4(10-53) probe, peptide titrated
Target sequence in this assay (P35222 whole entry, one chain of several): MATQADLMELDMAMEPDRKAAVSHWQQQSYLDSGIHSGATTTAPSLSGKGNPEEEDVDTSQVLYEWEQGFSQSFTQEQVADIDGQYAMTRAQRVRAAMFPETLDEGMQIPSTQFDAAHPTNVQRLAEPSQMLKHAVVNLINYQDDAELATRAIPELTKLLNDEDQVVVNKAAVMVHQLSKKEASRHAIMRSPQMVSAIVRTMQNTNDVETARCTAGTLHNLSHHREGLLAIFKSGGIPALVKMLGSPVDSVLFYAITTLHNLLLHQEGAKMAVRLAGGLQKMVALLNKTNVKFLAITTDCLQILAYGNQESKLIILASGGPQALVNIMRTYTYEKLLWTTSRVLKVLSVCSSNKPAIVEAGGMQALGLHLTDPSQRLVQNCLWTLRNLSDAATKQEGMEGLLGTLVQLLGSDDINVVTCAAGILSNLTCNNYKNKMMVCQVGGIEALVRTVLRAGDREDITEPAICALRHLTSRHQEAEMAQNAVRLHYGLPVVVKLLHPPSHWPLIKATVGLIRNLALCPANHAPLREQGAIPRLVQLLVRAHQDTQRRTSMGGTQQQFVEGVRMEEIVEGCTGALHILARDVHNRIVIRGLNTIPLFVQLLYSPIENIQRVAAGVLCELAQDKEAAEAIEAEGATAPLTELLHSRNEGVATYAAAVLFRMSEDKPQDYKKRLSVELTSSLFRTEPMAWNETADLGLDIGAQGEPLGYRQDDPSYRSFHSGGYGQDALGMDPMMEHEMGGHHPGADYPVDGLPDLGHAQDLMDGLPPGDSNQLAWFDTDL

[2] = target: full-length beta-Catenin (Uniprot ID P35222) (Homo sapiens (Human)) (UniProt P35222); assay: fluorescence polarization competition; full-length beta-catenin, competitor 5FAM-TCF4(10-53) probe
Target sequence in this assay (P35222 whole entry, one chain of several): as above

[3] = target: full-length beta-Catenin (Uniprot ID P35222) (Homo sapiens (Human)) (UniProt P35222); assay: fluorescence polarization competition against 5FAM TCF4 10-53 probe
Target sequence in this assay (P35222 whole entry, one chain of several): as above

[4] = target: beta-catenin (Homo sapiens (Human)) (UniProt P35222); assay: fluorescence polarization competition; full-length beta-catenin with 5FAM-TCF4(10-53) probe as competitor
[5] = target: full-length beta-Catenin (Uniprot ID P35222) (Homo sapiens (Human)) (UniProt P35222); assay: fluorescence polarization competition; full-length beta-catenin, competitor 5FAM-TCF4 10-53 probe
Target sequence in this assay (P35222 2-781 limits assumed): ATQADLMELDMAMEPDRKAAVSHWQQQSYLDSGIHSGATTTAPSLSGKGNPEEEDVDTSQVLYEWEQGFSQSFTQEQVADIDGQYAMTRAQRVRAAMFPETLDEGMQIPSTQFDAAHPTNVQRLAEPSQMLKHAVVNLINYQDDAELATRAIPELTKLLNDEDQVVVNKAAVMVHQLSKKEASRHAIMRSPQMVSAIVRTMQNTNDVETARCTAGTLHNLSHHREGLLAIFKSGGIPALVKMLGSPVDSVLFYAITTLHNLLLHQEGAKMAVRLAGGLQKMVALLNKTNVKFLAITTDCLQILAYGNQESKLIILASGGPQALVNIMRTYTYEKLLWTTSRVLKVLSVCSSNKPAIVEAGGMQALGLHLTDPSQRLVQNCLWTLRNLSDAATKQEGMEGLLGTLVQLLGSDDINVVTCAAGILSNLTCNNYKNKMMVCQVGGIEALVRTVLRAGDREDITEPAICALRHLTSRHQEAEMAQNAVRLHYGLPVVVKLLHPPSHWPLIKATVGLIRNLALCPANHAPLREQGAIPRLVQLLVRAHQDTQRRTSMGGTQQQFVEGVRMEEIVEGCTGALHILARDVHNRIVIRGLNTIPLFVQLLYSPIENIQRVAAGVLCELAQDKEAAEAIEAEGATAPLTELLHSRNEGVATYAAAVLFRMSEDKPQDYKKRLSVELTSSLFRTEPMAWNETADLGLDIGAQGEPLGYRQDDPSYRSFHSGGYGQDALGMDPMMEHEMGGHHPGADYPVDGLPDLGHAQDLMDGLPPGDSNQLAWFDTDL

[6] = target: full-length beta-Catenin (Uniprot ID P35222) (Homo sapiens (Human)) (UniProt P35222); assay: fluorescence polarization competition; 10 nM full-length beta-catenin + 10 nM 5FAM-TCF4 10-53 as competitor probe
Target sequence in this assay (P35222 2-781 limits assumed): as above

Sequence of beta-catenin (Homo sapiens (Human)) (P35222 whole entry): as the sequence (P35222 whole entry, one chain of several) above

| IC50 [1] | EC50 [2] | IC50 [3] | also measured | Binder |
| --- | --- | --- | --- | --- |
| 520 nM | 520 nM | – | – | Ac-[αAllylPro]D[tBuAla][B5(3)]DDAAFL[PyrS2″][Phe(2-Cl)][Bta]S-NH2 (staple 1-4, 4-11; not fully specified; printed as Ac-PL3-Asp-Npg-B5-Asp-Asp-Ala-Ala-Phe-Leu-PyrS2-2C1F-BztA-Ser-NH2) [I-1065] |
| – | – | 1120 nM | – | 5hexenyl-XD[B5(3)]AD[Phe(3-COOH)]AAF[PyrS2]L[3Thi][Bta]Q-NH2 (staple 3-10; staple (positions not given here); not fully specified (residue 1, bridges); printed as 5hexenyl-MePro-Asp-B5-Ala-Asp-3COOHF-Ala-Ala-Phe-PyrS2-Leu-3Thi-BztA-Gln-NH2; also: -CH=CH- in each staple reduced to -CH2-CH2-) [I-2604] |
| – | – | 251 nM | – | 3butenyl-XD[B5(3)]ADDAAF[PyrS2]L[3Thi][Bta]Q-NH2 (staple 3-10; staple (positions not given here); not fully specified (residue 1, bridges); printed as 3butenyl-MePro-Asp-B5-Ala-Asp-Asp-Ala-Ala-Phe-PyrS2-Leu-3Thi-BztA-Gln-NH2; also: -CH=CH- in each staple reduced to -CH2-CH2-) [I-2608] |
| 789 nM | 789 nM | – | – | Ac-[αAllylPro]D[tBuAla][B5(3)]DEAAFL[PyrS2″][Phe(2-Cl)][Bta]S-NH2 (staple 1-4, 4-11; not fully specified; printed as Ac-PL3-Asp-Npg-B5-Asp-Glu-Ala-Ala-Phe-Leu-PyrS2-2C1F-BztA-Ser-NH2) [I-1066] |
| – | – | – | EC50 [4]: 74 nM; IC50 [5]: 74 nM | Ac-[αAllylPro]DN[B5(12)]DDAAFL[PyrS2″][3Thi][Bta]L-NH2 (staple 1-4, 4-11) [I-1413] |
| – | – | 1350 nM | – | {5hexenyl″}-[αMeP]D[B5(3)]ADDAAF[PyrS2]L[3Thi][Bta]Q-NH2 (staple 3-10; staple (positions not given here); not fully specified (bridges); printed as 5hexenyl-MePro-Asp-B5-Ala-Asp-Asp-Ala-Ala-Phe-PyrS2-Leu-3Thi-BztA-Gln-NH2) [I-2598] |
| 5 nM | – | – | EC50 [6]: 5 nM | Ac-[αAllylPro]D[Cha][B5(16)]DDAAFT[PyrS2″][Phe(2-Cl)][Bta]Q-NH2 (staple 1-4, 4-11) [I-1042] |
| – | – | 923 nM | – | 5hexenyl-XD[B5(3)]ADDAAF[PyrS2]L[3Thi][Bta]Q-NH2 (staple 3-10; staple (positions not given here); not fully specified (residue 1, bridges); printed as 5hexenyl-MePro-Asp-B5-Ala-Asp-Asp-Ala-Ala-Phe-PyrS2-Leu-3Thi-BztA-Gln-NH2; also: -CH=CH- in each staple reduced to -CH2-CH2-) [I-2600] |
| – | – | 592 nM | – | 4pentenyl-XD[B5(3)]ADDAAF[PyrS2]L[3Thi][Bta]Q-NH2 (staple 3-10; staple (positions not given here); not fully specified (residue 1, bridges); printed as 4pentenyl-MePro-Asp-B5-Ala-Asp-Asp-Ala-Ala-Phe-PyrS2-Leu-3Thi-BztA-Gln-NH2; also: -CH=CH- in each staple reduced to -CH2-CH2-) [I-2601] |
| 950 nM | 950 nM | – | – | Ac-[αAllylPro]D[tBuAla][B5(3)]DDAAFL[PyrS2″][Phe(2-Cl)][Bta]T-NH2 (staple 1-4, 4-11; not fully specified; printed as Ac-PL3-Asp-Npg-B5-Asp-Asp-Ala-Ala-Phe-Leu-PyrS2-2C1F-BztA-Thr-NH2) [I-1068] |
| – | – | 608 nM | – | 4pentenyl-XD[B5(3)]AD[Phe(3-COOH)]AAF[PyrS2]L[3Thi][Bta]Q-NH2 (staple 3-10; staple (positions not given here); not fully specified (residue 1, bridges); printed as 4pentenyl-MePro-Asp-B5-Ala-Asp-3COOHF-Ala-Ala-Phe-PyrS2-Leu-3Thi-BztA-Gln-NH2; also: -CH=CH- in each staple reduced to -CH2-CH2-) [I-2605] |
| 1020 nM | 1020 nM | – | – | Ac-[αAllylPro]D[tBuAla][B5(3)]DEAAFL[PyrS2″][Phe(2-Cl)][Bta]T-NH2 (staple 1-4, 4-11; not fully specified; printed as Ac-PL3-Asp-Npg-B5-Asp-Glu-Ala-Ala-Phe-Leu-PyrS2-2C1F-BztA-Thr-NH2) [I-1070] |
| 517 nM | 517 nM | – | – | Ac-[αAllylPro]D[tBuAla][B5(3)]DEAAFL[PyrS2″][Phe(2-Cl)][Bta]S-NH2 (staple 1-4, 4-11; not fully specified; printed as Ac-PL3-Asp-Npg-B5-Asp-Glu-Ala-Ala-Phe-Leu-PyrS2-2C1F-BztA-Ser-NH2) [I-1067] |
| – | – | 8220 nM | – | 5hexenyl-XD[B5(3)]AD[Phe(3-COOH)]AAF[PyrS2]L[3Thi][Bta]Q-NH2 (staple 3-10; staple (positions not given here); not fully specified (residue 1, bridges); printed as 5hexenyl-MePro-Asp-B5-Ala-Asp-3COOHF-Ala-Ala-Phe-PyrS2-Leu-3Thi-BztA-Gln-NH2) [I-2602] |
| – | – | 767 nM | – | 4pentenyl-XD[B5(3)]AD[Phe(3-COOH)]AAF[PyrS2]L[3Thi][Bta]Q-NH2 (staple 3-10; staple (positions not given here); not fully specified (residue 1, bridges); printed as 4pentenyl-MePro-Asp-B5-Ala-Asp-3COOHF-Ala-Ala-Phe-PyrS2-Leu-3Thi-BztA-Gln-NH2) [I-2603] |
| 920 nM | 920 nM | – | – | Ac-[αAllylPro]D[tBuAla][B5(3)]DDAAFL[PyrS2″][Phe(2-Cl)][Bta]T-NH2 (staple 1-4, 4-11; also: staple stereoisomer: later eluting HPLC peak) [I-1069] |

— patent publication US20240116985A1, “STAPLED PEPTIDES AND METHODS THEREOF” (priority 2020, published 2024)
